In PMC11582362 (2023):

B1: full length ADAR1 p110, wild type (FLAG-tagged and HA-tagged copies) [human] / itself (parent complex)
chain: MAEIKEKICDYLFNVSDSSALNLAKNIGLTKARDINAVLIDMERQGDVYRQGTTPPIWHLTDKKRERMQIKRNTNSVPETAPAAIPETKRNAEFLTCNIPTSNASNNMVTTEKVENGQEPVIKLENRQEARPEPARLKPPVHYNGPSKAGYVDFENGQWATDDIPDDLNSIRAAPGEFRAIMEMPSFYSHGLPRCSPYKKLTECQLKNPISGLLEYAQFASQTCEFNMIEQSGPPHEPRFKFQVVINGREFPPAEAGSKKVAKQDAAMKAMTILLEEAKAKDSGKSEESSHYSTEKESEKTAESQTPTPSATSFFSGKSPVTTLLECMHKLGNSCEFRLLSKEGPAHEPKFQYCVAVGAQTFPSVSAPSKKVAKQMAAEEAMKALHGEATNSMASDNQPEGMISESLDNLESMMPNKVRKIGELVRYLNTNPVGGLLEYARSHGFAAEFKLVDQSGPPHEPKFVYQAKVGGRWFPAVCAHSKKQGKQEAADAALRVLIGENEKAERMGFTEVTPVTGASLRRTMLLLSRSPEAQPKTLPLTGSTFHDQIAMLSHRCFNTLTNSFQPSLLGRKILAAIIMKKDSEDMGVVVSLGTGNRCVKGDSLSLKGETVNDCHAEIISRRGFIRFLYSELMKYNSQTAKDSIFEPAKGGEKLQIKKTVSFHLYISTAPCGDGALFDKSCSDRAMESTESRHYPVFENPKQGKLRTKVENGEGTIPVESSDIVPTWDGIRLGERLRTMSCSDKILRWNVLGLQGALLTHFLQPIYLKSVTLGYLFSQGHLTRAICCRVTRDGSAFEDGLRHPFIVNHPKVGRVSIYDSKRQSGKTKETSVNWCLADGYDLEILDGTRGTVDGPRNELSRVSKKNIFLLFKKLCSFRYRRDLLRLSYGEAKKAARDYETAKNYFKKGLKDMGYGNWISKPQEEKNFYLCPV

Variants of: B1
Assay: co-immunoprecipitation (anti-FLAG IP, anti-HA western blot, bands quantified with ImageJ); HEK293T cells; in the presence of RNases; n = 3; parent: 70; read off a plot

Variant | response [%]
chain 1 V452A, chain 1 D453Q, chain 1 W473V, chain 1 C478S | ~10
